# Test results from article PMC6974936.
# Columns and labels:
# [1] = biological target: N-terminus Huntingtin exon 1 fragment harboring pathological (109Q) polyglutamine repeats, fused with eCFP or eYFP; test: FRET or BRET; frequency-domain FLIM-FRET (phasor trajectory) in living Neuro2a cells co-expressing 109QHtt-eCFP and 109QHtt-eYFP; aggregated fraction; cells treated with 8R10Q
# [2] = biological target: N-terminus Huntingtin exon 1 fragment harboring pathological (109Q) polyglutamine repeats, fused with eCFP or eYFP; test: FRET or BRET; frequency-domain FLIM-FRET (phasor trajectory) in living Neuro2a cells co-expressing 109QHtt-eCFP and 109QHtt-eYFP; aggregated fraction; no peptide
# [3] = biological target: N-terminus Huntingtin exon 1 fragment harboring pathological (109Q) polyglutamine repeats, fused with eCFP or eYFP; test: FRET or BRET; frequency-domain FLIM-FRET (phasor trajectory) in living Neuro2a cells co-expressing eCFP (donor) and eYFP (acceptor) fusions; soluble fraction; no peptide
# [4] = biological target: N-terminus Huntingtin exon 1 fragment harboring pathological (109Q) polyglutamine repeats, fused with eCFP or eYFP; test: FRET or BRET; frequency-domain FLIM-FRET (phasor trajectory) in living Neuro2a cells co-expressing 109QHtt-eCFP and 109QHtt-eYFP; soluble fraction; cells treated with 8R10Q
# Sequence of N-terminus Huntingtin exon 1 fragment harboring pathological (109Q) polyglutamine repeats, fused with eCFP or eYFP (P42858 whole entry, change not shown, the tested form may be a part): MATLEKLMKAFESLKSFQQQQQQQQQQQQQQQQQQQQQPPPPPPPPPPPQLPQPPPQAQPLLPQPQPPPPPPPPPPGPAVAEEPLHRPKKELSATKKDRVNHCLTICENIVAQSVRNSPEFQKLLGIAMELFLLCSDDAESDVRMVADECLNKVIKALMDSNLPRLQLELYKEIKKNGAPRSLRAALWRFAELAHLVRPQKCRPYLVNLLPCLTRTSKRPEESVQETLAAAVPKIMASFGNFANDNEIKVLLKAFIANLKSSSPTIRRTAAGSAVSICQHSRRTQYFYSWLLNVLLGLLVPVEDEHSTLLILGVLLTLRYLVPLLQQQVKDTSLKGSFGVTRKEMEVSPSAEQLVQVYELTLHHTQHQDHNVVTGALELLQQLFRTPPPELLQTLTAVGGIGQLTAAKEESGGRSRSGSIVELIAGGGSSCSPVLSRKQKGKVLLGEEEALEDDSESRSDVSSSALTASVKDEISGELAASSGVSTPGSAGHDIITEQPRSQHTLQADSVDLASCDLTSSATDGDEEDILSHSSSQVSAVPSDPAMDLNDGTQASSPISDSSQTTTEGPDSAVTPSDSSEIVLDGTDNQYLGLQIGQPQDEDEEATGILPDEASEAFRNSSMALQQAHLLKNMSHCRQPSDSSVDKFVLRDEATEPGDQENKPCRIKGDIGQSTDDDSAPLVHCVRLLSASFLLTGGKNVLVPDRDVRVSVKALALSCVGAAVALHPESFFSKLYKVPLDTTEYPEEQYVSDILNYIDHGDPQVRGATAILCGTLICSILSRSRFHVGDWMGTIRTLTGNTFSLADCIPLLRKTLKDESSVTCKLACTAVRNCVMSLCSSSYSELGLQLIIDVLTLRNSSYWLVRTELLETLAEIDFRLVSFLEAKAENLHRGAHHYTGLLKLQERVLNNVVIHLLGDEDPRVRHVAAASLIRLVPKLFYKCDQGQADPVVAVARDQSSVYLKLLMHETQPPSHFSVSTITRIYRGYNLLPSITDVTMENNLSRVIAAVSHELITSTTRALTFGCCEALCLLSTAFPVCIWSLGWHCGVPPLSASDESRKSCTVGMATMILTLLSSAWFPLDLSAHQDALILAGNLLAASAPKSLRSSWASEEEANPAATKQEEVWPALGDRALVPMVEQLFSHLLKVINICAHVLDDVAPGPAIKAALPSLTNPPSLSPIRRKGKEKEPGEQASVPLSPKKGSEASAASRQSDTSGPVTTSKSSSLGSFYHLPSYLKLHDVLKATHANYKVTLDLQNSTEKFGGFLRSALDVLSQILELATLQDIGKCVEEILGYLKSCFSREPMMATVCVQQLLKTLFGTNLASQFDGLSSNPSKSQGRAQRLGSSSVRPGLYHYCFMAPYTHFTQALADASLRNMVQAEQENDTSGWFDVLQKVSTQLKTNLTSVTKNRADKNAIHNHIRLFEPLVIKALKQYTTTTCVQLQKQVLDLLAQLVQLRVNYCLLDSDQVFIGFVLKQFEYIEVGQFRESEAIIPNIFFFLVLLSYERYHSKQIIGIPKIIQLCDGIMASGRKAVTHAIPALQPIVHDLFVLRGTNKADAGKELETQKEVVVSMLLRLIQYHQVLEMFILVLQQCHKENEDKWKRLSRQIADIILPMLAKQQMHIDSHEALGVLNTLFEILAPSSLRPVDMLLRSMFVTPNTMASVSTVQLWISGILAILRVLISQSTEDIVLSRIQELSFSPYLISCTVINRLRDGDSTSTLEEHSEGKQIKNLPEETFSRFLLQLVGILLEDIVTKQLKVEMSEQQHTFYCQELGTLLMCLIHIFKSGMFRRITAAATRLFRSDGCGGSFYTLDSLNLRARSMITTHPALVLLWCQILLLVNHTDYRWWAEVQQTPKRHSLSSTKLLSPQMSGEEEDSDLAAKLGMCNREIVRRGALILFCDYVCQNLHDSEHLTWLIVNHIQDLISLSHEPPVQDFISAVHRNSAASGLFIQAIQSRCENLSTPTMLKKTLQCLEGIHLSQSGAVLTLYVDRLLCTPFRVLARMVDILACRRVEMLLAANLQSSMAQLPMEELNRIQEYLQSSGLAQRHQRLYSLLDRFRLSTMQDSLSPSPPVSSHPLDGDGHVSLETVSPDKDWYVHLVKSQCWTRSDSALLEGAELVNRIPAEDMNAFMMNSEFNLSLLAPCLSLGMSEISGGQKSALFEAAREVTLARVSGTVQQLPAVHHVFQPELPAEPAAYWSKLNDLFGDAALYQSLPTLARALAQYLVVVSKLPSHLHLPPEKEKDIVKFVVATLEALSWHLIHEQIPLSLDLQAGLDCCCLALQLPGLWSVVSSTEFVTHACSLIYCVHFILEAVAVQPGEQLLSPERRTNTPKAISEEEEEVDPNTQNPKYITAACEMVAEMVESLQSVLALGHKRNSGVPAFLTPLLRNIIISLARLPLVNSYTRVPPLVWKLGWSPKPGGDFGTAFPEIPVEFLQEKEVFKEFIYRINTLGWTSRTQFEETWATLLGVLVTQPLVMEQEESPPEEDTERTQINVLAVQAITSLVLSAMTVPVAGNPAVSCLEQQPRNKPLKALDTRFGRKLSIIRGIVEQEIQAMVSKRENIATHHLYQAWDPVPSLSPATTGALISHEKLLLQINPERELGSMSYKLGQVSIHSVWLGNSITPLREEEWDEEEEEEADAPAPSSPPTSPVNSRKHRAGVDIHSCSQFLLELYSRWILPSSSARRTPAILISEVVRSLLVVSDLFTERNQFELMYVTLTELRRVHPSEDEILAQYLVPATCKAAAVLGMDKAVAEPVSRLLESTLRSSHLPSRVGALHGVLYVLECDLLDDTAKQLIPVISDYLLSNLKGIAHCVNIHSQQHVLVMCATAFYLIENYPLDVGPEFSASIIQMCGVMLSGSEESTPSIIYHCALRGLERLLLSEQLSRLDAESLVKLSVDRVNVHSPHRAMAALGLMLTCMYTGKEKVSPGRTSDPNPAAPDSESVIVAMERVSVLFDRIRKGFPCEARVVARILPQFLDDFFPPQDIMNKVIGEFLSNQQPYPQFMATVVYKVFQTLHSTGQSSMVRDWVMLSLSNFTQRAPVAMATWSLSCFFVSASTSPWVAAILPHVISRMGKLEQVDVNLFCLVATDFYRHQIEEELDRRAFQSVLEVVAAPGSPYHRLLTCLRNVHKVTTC
substance,measurement,setting,value
"N-terminus Huntingtin exon 1 fragment harboring pathological (109Q) polyglutamine repeats, fused with eCFP or eYFP (domain or fragment)",FRET efficiency with 8R10Q,[1],16.4%
same,FRET efficiency,[2],41.8%
same,FRET efficiency,[3],8.7%
same,FRET efficiency with 8R10Q,[4],4.5%
